# Target: organic anion transporting polypeptide (OATP) 1B3 (UniProt Q9NPD5)
# Chain of UniProt Q9NPD5 (Q9NPD5 whole entry): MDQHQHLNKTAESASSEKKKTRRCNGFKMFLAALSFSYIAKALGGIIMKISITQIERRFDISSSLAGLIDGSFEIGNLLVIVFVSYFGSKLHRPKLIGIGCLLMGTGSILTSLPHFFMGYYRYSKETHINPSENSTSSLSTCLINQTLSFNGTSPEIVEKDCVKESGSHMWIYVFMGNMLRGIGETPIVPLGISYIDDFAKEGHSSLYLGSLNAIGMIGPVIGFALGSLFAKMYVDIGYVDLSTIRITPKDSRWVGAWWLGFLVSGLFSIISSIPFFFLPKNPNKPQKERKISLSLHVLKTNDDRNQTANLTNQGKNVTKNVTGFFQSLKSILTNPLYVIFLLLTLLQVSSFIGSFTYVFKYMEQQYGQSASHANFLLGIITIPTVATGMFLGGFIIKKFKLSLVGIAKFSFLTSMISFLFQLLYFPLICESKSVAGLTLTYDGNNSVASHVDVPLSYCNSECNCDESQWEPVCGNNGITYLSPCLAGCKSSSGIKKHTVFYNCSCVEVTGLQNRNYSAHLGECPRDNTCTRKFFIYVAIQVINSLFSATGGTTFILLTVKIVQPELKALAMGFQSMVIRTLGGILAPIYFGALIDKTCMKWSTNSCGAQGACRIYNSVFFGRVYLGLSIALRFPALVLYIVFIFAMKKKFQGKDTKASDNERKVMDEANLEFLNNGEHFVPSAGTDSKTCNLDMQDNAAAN
substance,measurement,value
octapeptide cholecystokinin 8,"Km (called the affinity constant) of CCK-8 transport, [^3H]CCK-8 accumulation 0.1-40 uM, 3 min, in HEK293-OATP1B3 cells pretreated with bortezomib (50 nM, 7 h), Michaelis-Menten fit",4.9 µM
same,"Km (called the affinity constant) of CCK-8 transport, [^3H]CCK-8 accumulation 0.1-40 uM, 3 min, in HEK293-OATP1B3 cells pretreated with vehicle control, Michaelis-Menten fit",5.8 µM
